Patent US20200199244A1 (published 2020)
Changes are numbered by the printed parent chain. Where “and” joins values, the source holds several entries; their conditions need not be identical. Identical values can stand only once.

B1: BMS3h-217-1 (other)
VL: NIQMTQSPSSLSASVGDRVTITCRASHFIGTLLTWYQHKPGKAPKLLITYGSLLQSGVPSRFSGSGSGTDFTLTISSLQPEDFATYYCGQGVLWPATFGQGTKVEIKR
notes: dAb, single VK
B2: BMS3h-217-15 (other)
VL: B1 VL with N1D, S12Y, A25V, T34S, H38Q, T74S, A96P, R108Q
notes: dAb, single VK
B3: BMS3h-217-9 (other)
VL: B1 VL with N1D, T34S, L53M
notes: dAb, single VK
B4: BMS3h-217-16 (other)
VL: B1 VL with N1D, T34S, H38Q, G41R, A96P
notes: dAb, single VK
B5: BMS3h-217-7 (other)
VL: B1 VL with N1D, T31S, T34S
notes: dAb, single VK
B6: BMS3h-217-2 (other)
VL: B1 VL with N1D, T34S, H38Q, G41R, Q79H, A96P
notes: dAb, single VK
B7: BMS3h-217-17 (other)
VL: B1 VL with N1D, M4I, T5I, T34S, H38Q, A96P
notes: dAb, single VK
B8: BMS3h-217-23 (other)
VL: B1 VL with N1D, T31S, T34S, H38V, K103T
notes: dAb, single VK
B9: BMS3h-217-3 (other)
VL: B1 VL with N1D, S12T, T34S, H38Q, I48V, S77N, A96P, I106N, K107I
notes: dAb, single VK
B10: BMS3h-217-8 (other)
VL: B1 VL with N1D, T34S
notes: dAb, single VK
B11: BMS3h-56-7 (other)
VH: EVQLLESGGGLVQPGGSLRLSCAASGFTFRDYEMWWVRQAPGKGLERVSAINPQGTRTYYADSVKGRFTISRDNSKNTLYLQMNSLRAEDTSVYHCAKPPFIFGDWGPGTLVTVSS
notes: dAb, single VH
B12: BMS3h-56-25 (other)
VH: B11 VH with Q39R, K65M, S92A, H95Y, P99L, I102T, G104D, P108Q
notes: dAb, single VH
B13: BMS3h-56-29 (other)
VH: EVQLLESGGGLVQPGGSLRLSCAASGFTFAGYELWWVRQAPGKGLERVSAINPQGTRTYYADSVMGRFTISRDNSKNTLYLQMNSLRAEDTAVYYCAKLPFMFDDRGQGTLVTVSS
notes: dAb, single VH
B14: BMS3h-56-24 (other)
VH: B11 VH with K65M, S92A, P99E, F101Y, I102S, F103Y, G104D, D105Y, P108Q
notes: dAb, single VH
B15: BMS3h-56-17 (other)
VH: B11 VH with T28S, V37Y, S92A, H95Y, P99L, I102T, G104E, P108Q
notes: dAb, single VH
B16: BMS3h-56-31 (other)
VH: B13 VH with L34M, V37F
notes: dAb, single VH
B17: BMS3h-56-26 (other)
VH: B13 VH with A30R, G31D, L34M, Q39R
notes: dAb, single VH
B18: BMS3h-56-19 (other)
VH: B11 VH with S92A, P99L, I102T, G104E, P108Q
notes: dAb, single VH
B19: BMS3h-56-21 (other)
VH: B11 VH with S92A, H95Y, A97L, P99L, I102T, G104E, P108Q
notes: dAb, single VH
B20: BMS3h-56-30 (other)
VH: B13 VH with L34M, V37F, M102T, R106W
notes: dAb, single VH
B21: BMS3h-56-22 (other)
VH: B11 VH with E89D, S92A, A97T, P99L, G104E, D105Y, P108Q
notes: dAb, single VH
B22: BMS3h-56-20 (other)
VH: B11 VH with S92A, H95Y, A97T, P99L, I102T, G104E, P108Q
notes: dAb, single VH
B23: BMS3h-56-28 (other)
VH: B13 VH with M102T, R106W
notes: dAb, single VH
B24: BMS3h-56-16 (other)
VH: B13 VH with A30R, G31D, L34M, M102T, D104E, R106W
notes: dAb, single VH
B25: BMS3h-56-18 (other)
VH: B11 VH with G44V, T78M, S92A, H95Y, P99L, I102T, G104E, P108Q
notes: dAb, single VH
B26: BMS3h-56-8 (other)
VH: B11 VH with L18R, S92A, H95Y, P99L, I102T, G104E, P108Q
notes: dAb, single VH
B27: BMS3h-198-9 (other)
VH: EVQLLESGGGLVQPGGSLRLSCAASGFTFAGYEMWWVRQAPGKGLERVSAISGSGGSTYYADSVKGRFTISRDDSKNTLYLQMNSLRAEDTAVYYCAKEPYSFDYWGQGTLVTVSS
notes: dAb, single VH
B28: BMS3h-56-23 (other)
VH: B13 VH with A30R, G31D, L34M, L99E, F101Y, M102S, D105S, R106W
notes: dAb, single VH
B29: BMS3h-38-202 (other)
VH: B27 VH with E6A, A30E, G31E, Y32E, W35I, R47W, D74N, A97G, Y101F, S102Y
notes: domain antibody (dAb): single human VH domain
B30: BMS3h-38-217 (other)
VH: EVQLLASGGGLVQPGGSLRLSCAASGFTFEEEEMIWVRQAPGKGLEWVSAISRRGYSTYYADSVKGRFTISRDNSKNTLYLQMNSLRAEDTAVYYCGKEPFRYDYWGQGTLVTVSS
notes: as for B29
B31: BMS3h-38-224 (other)
VH: B30 VH with R53G, R54S, Y56G, R102P
notes: as for B29
B32: BMS3h-38-235 (other)
VH: B30 VH with R54N
notes: as for B29
B33: BMS3h-38-209 (other)
VH: B30 VH with R54L, Y56W
notes: as for B29
B34: BMS3h-38-204 (other)
VH: B30 VH with E30P, E31Q, R53G, R54S, Y56G
notes: as for B29
B35: BMS3h-38-225 (other)
VH: B30 VH with R53G, R54S, Y56G, S57G
notes: as for B29
B36: BMS3h-38-228 (other)
VH: B30 VH with R54N, Y56F
notes: as for B29
B37: BMS3h-38-237 (other)
VH: B30 VH with R54G, Y56W
notes: as for B29
B38: BMS3h-38-215 (other)
VH: B30 VH with R53G, R54L, Y56W
notes: as for B29
B39: BMS3h-38-205 (other)
VH: B30 VH with E30F, E31A, E32A, R53G, R54S, Y56G
notes: as for B29
B40: BMS3h-38-223 (other)
VH: B30 VH with R53G, R54S, Y56G, R102M
notes: as for B29
B41: BMS3h-38-226 (other)
VH: B30 VH with R53G, R54S, Y56G, F101L, R102Y
notes: as for B29
B42: BMS3h-38-203 (other)
VH: B30 VH with E32K, R53G, R54S, Y56G, R102F
notes: as for B29
B43: BMS3h-38-218 (other)
VH: B30 VH with R54H, Y56W
notes: as for B29
B44: BMS3h-38-231 (other)
VH: B30 VH with T28P, R54Q, Y56W
notes: as for B29
B45: BMS3h-193-2506 (other)
VL: DIQMTQSPSSLSASVGDRVTITCRASQQIGRRLNWYQQKPGKAPRLLIYLATRLQSGVPSRFSGSGSGTDFTLTISSLQPEDFATYYCHQYESPPLTFGQGTKVEIKR
notes: domain antibody (dAb): single human V kappa domain
B46: BMS3h-193-2504 (other)
VL: B45 VL with Q27S
notes: as for B45
B47: BMS3h-193-2512 (other)
VL: B45 VL with Q27E, Q28V
notes: as for B45
B48: BMS3h-193-2501 (other)
VL: B45 VL with Q28T, G30E, Y91F, S93H
notes: as for B45
B49: BMS3h-193-2505 (other)
VL: B45 VL with Q27E, Q28R
notes: as for B45
B50: BMS3h-193-2516 (other)
VL: B45 VL with Q28T, G30E, A51S, T52S, R53K
notes: as for B45
B51: BMS3h-193-2502 (other)
VL: B45 VL with Q27F, Q28P, G30D
notes: as for B45
B52: BMS3h-193-2507 (other)
VL: B45 VL with Q28P, G30A
notes: as for B45
B53: BMS3h-193-2514 (other)
VL: B45 VL with Q27T, Q28S, G30A
notes: as for B45
B54: BMS3h-193-2511 (other)
VL: B45 VL with Q28N, R31T
notes: as for B45
B55: BMS3h-193-2513 (other)
VL: B45 VL with Q27E, Q28A
notes: as for B45
B56: BMS3h-193-2503 (other)
VL: B45 VL with Q27S, Q28T
notes: as for B45
B57: BMS3h-193-2515 (other)
VL: B45 VL with Q27L, Q28N
notes: as for B45
B58: BMS3h-193-2510 (other)
VL: B45 VL with Q28S
notes: as for B45

Molecular target: T1, human CD40 (BMS, CY24FEB06-01) (human, UniProt P25942 21-193)
T1 construct: Soluble reagent of the bead and ELISA RBA; It is detected with an anti-human IgG (Fc) mAb, so it may be a CD40-Ig fusion
Experiment: ELISA RBA, competition with IZ-CD40L;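 also: Neutravidin-coated 384-well plate, dAb–human CD40 complex bound for 2 h at room temperature, absorbance read at 450 nm after HCl stop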
T1 sequence (P25942 21-193 limits assumed): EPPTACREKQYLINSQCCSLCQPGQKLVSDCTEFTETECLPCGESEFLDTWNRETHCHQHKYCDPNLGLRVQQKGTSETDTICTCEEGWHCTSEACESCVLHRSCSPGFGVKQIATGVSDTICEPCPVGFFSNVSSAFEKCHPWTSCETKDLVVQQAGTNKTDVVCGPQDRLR
Experimental: Clear walled High Bind, 384-well plates (Corning, UK) were coated with 25 μl of 1 μg/ml Neutravidin in 0.2 M carbonate-bicarbonate buffer, pH 9.4 overnight at 4° C. The following day, assay plates were washed with 0.1% (v/v) Tween PBS buffer, blocked with 1% (w/v) BSA in PBS for 1 hour at room temperature and washed again. […] Following washing of the assay plate, the dAb:human CD40 complex was incubated in the assay plate at room temperature for 2 hours with gentle agitation. […] Absorbance signal was measured using a SpectraMax® M5e plate reader (Molecular Devices) at 450 nm following neutralization with 1M HCl solution.

B1 and B2 are within 1.5-fold of each other in EC50: 23 nM for the first, 21 nM for the second.

Compared with B3, B4 is 5.9-fold lower in EC50: 53 nM for the first, 9 nM for the second. The second is the more potent here.

First: B5
Second: B6
The EC50 of the first is 2-fold lower: 39 nM for the first, 78 nM for the second. The first is the more potent here.

Going from B7 to B8, the EC50 falls from 60 nM to 16 nM (3.8-fold).

First: B9
Second: B10
The EC50 of the first is 5.3-fold higher: 32 nM for the first, 6 nM for the second.

B11 and B12 are the same in EC50: 5.5 nM for the first, 5.5 nM for the second.

B13 and B14 are within 1.5-fold of each other in EC50: 9.7 nM for the first, 11.7 nM for the second.

B15 and B16 are within 1.5-fold of each other in EC50: 66 nM for the first, 61 nM for the second.

Going from B17 to B20, the EC50 rises from 5 nM to 24.2 nM (4.8-fold). The first is the more potent here.

B21 and B22 are within 1.5-fold of each other in EC50: 6.5 nM for the first, 6.8 nM for the second.

B23 and B24 are within 1.5-fold of each other in EC50: 8.9 nM for the first, 7 nM for the second.

B25 and B26 are within 1.5-fold of each other in EC50: 6.5 nM for the first, 6.2 nM for the second.

B27 and B28 are within 1.5-fold of each other in EC50: 20 nM for the first, 24.5 nM for the second.

In the case of B18, the EC50 is reported as 5.5 nM and 5.1 nM.
In the case of B19, the EC50 is reported as 6.5 nM and 6.2 nM.

Molecular target: T2, human CD40 (BMS, CY24FEB06-01) (human, UniProt P25942 21-193)
T2 construct: Soluble human CD40 reagent of the ELISA RBA
Experiment: ELISA RBA, competition with IZ-CD40L for soluble human CD40;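 also: Neutravidin-coated 384-well plates, dAb–human CD40 complex incubated 2 h at room temperature, read-out as absorbance at 450 nm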
T2 sequence (P25942 21-193 limits assumed): as above

B29 and B31 are within 1.5-fold of each other in EC50: 4.8 nM for the first, 6.3 nM for the second.

Compared with B32, B33 is 6.8-fold higher in EC50: 1.5 nM for the first, 10.2 nM for the second. The first is the more potent here.

Going from B34 to B35, the EC50 rises from 4.8 nM to 8.8 nM (1.8-fold).

Compared with B36, B37 is 2-fold lower in EC50: 4 nM for the first, 2 nM for the second.

First: B40
Second: B41
The EC50 of the first is 3.2-fold lower: 5.7 nM for the first, 18.1 nM for the second.

First: B42
Second: B43
The EC50 of the first is 1.8-fold higher: 5.5 nM for the first, 3 nM for the second.

Going from B44 to B45, the EC50 rises from 4.4 nM to 180 nM (41-fold). The first is the more potent here.

Compared with B46, B47 is 4.3-fold higher in EC50: 140 nM for the first, 600 nM for the second.

Going from B48 to B49, the EC50 rises from 114 nM to 500 nM (4.4-fold).

Compared with B50, B51 is 1.7-fold higher in EC50: 100 nM for the first, 170 nM for the second. The first is the more potent here.

Going from B52 to B53, the EC50 rises from 160 nM to 525 nM (3.3-fold).

Compared with B54, B55 is 2.1-fold lower in EC50: 270 nM for the first, 130 nM for the second. The second is the more potent here.

Compared with B56, B57 is 30-fold lower in EC50: 3000 nM for the first, 100 nM for the second. The second is the more potent here.

B58 showed an EC50 of 170 nM.

For B30, the EC50 was 1.8 nM and 2.2 nM.
With B38 the EC50 was 2.3 nM and 3.6 nM.
For B39, the EC50 was 4.5 nM and 11.1 nM.
